Protein production data for 23 sequences are collected here from a protein production outcome set (Wang et al. 2014).

The nature of this series: label from the status in PepcDB records.
Consider “MNERRKAELVLLGATFIWGSTFPVMKIGVEDFPPITFIALRFGIASFVLFLALRKHIRKDALFPGLILGFTLFLGHGFQIVGLKYTTPSNSAFITSLYVVFTPFIAFLFFRKGLKMFDAFSLSLAVIGLYLISNAELRLNYGDALTVVAALSFAFQIVLVEYFGNLGVGLAFWQIFWNFILSTVYAGIFEGISLPSDPKVLGGIIYTGIFATALSFTLQVKYQPKVESYKAAIIYSSEPIFAHLLALAFLNDRLPPKGYLGAFLILLAVWLELYQERKNY”, for which the protein production result was “failed”.

As for “MVEGTESATGAASAGDLVEGRHAAPKARAGKGGLARSSLLMALGTVVSRATGLIRQVLQAAALGTGLLASTYNTANTVPTSLYTLLIGGALNAVLVPQLVRARATQPDGGRAYEQRLVTLVLCVLGVGTALAVWAAPGIVALYMRDTPDSHEAFELTVVFARFLLPQIFFYGVFSILGQVLNAREKFGAMMWTPVLNNVVLIGMFGAYLSLMTVPDRVEDITGQQVRFLGVCTTAGIALQALALIPFVRAAGFRFRPRFDWRGTGLGKSVHAAKWTLLLVLANQVALTVVTNYANAVDQELPKAGAGYTAYTYAQTIWMLPQSIVTVSLVTALLPRMSRAVAEDRLPDLRADLSRVLRISGVVIVPAGFLFLALGPGIATLLFAHGAADAASAQPLGHMLQAFGLGLIPFSAQYLLLRGFYAFEDTRTPFFMAVWIAVVNIALATACHLLLPARWAVTGMAAGYTLSYLAGLLLTARLLRKRLGGRRLDDGELRRTYGKLLCASAVAAGAGWAAARATATTTPTALALAAGAVTMALVYVALARLLKVSELRLPGRG”, the protein production result was “failed”.

With “MRVVHILLQVGILYGFYLVGSWIQKSFELIVPGSIIGMVLLLIALAIKAISPKWIEQGSMQLLLLMPMLFLPVTVGIMEYWHMFHGSGFWLLIIAFVSTILVFIISGWITQWLIAWKTKGIDKHDHL”, the protein production entry is “failed”.

On to “SERRYKQLFDSGRDGIFVVQMDEEEGVAQIVEANWSAHEMFGYSQGAFEELAFASLVDKGEREGVERLLKELPLKGGALIESHFVLLEHRSIPIELSIQSFLLEEKRTLYVSARDIT”, for which the protein production result is listed as “failed”.

For the sequence “MKKITKMVISSVLATVLMTACSQSSQNGQSDVKHIGILQYVEHPSLTATRKGFIKELAKEGYKDGKNIKIEYKNAQGDQSNIQSISEKLIKDNKLVLGIATPAAQSLTTVSTETPILFTAVTDPVSAELVKSMKKPEGLATGTSDMSPIKKQVSLLRKVMPKVKRVGIMYTTSERNSEVQVKQAKKIFQEAGIKTSVKGISSTNDVQDTAKSLMSKTEVIFVPTDNIIASSVTLLGNLSKELKVPVVGGSADMVPSGLLFSYGADYEALGRQTARQAVKILKGKDVAKVPSEYPQNLKVVVNEDMAKELGIDVSSIKNNK”, the protein production result is reported as “failed”.

Consider “MPESYWEKVSGKNIPSSLDLYPIIHNYLQEDDEILDIGCGSGKISLELASKGYSVTGIDINSEAIRLAETAARSPGLNQKTGGKAEFKVENASSLSFHDSSFDFAVMQAFLTSVPDPKERSRIIKEVFRVLKPGAYLYLVEFGQNWHLKLYRKRYLHDFPITKEEGSFLARDPETGETEFIAHHFTEKELVFLLTDCRFEIDYFRVKELETRTGNKILGFVIIAQKLLEHHHHHH”, for which the protein production result is reported as “not failed”.

“MIEENYKEERYTERVNQGGVWGSFKRKFLSWADDDAGYDEEKDYENLLNNEKLQKKLREWRRTKNQQNNNKTFNTNDTNSFETIQSVIAEQLNVDAVQVTPEAEFVKDLGADSDVVELIMALEEKFGIEIPDEQAEKIVNVGDVMRYIEKQLI”: the protein production result is “failed”.

“SARHFGMALAPWDVMGGGRFQSKKAMEERRKNGEGIRSFVGASEQTDAEIKISEALAKIAEEHGTESVTAIAIAYVRSKAKNFFPSVEGGKIEDLKENIKALSIDLTPDNIKYLESIVPFDIGFPNNFIVLNSLTQKYGTNNV”: the protein production entry is listed as “not failed”.

On to “MGRLHCTEDPVPEAVGGDMQQLNQLGAQQFSALTEVLFHFLTEQKEVERFLAQLSEFATTNQISLGSLRSIVKSLLLVPNGALKKSLTAKQVQADFITLGLSEEKATYFSEKWKQNTPTLARWAIGQTLMINQLIDMEWKFGVTSGSSELEKVGSIFLQLKLVVKKGNQTKNVYIELTLPQFYSFLHEMERVRTSMECFC”, for which the protein production entry is given as “failed”.

Consider “MGTRRRRGRKAIAGLPGYLLLLVLVLVWLFQELRPGPVPPAETGEAEVYFMPEEGPRAKARLLALMDGARESLEGAFYEFRDLEVAQGLLRAKARGVRVRLYGESDYREDFRRYLVAASLGQREEPPRVRFAELKERVKPLSLDCEEVVGIPICYDEREGFMHHKFLVVDGRAVWTGSTNMTWNAFARNNENSLLLPSPTLAQGYAREFEALFGGQKEGLGQPVAFALEGVEGVAYFSPRGGRLAREALLKRLSEAQREVLVAAFVLTDREVLEALLQARRRGAEVKVLLETRNLGTSREEALLEEGLEVRQDANPYTMHHKVMLLDGTYVVTGSYNFSVRAHEVNNENLLVLKSPSLAERYRKEVLRLWEAGSPL”, for which the protein production result is “failed”.

Consider “MPDPIFSVSDARRSGTRLIGFGIGAIVVILATAATFLLLTLPDANAFNARVERVFIENDLTTQAEIRLLEILAQSGTAFADTLSSYRMVIFVLLVFASAMMIAALAFLVMLVLLNRRMAQIERTGIQVTSLLISREENTVYLNNMEFQLTPAAIETLAVLAEARMDDDVLSGAQIEAVISGRDASDCEEAAGATRIKRLRDTLGNQMISALLVKNIAKRGYMLAIEKSVIQMV”, for which the protein production result was “failed”.

On to “INYYDTYIKTCLDNLKRKNTRRSIKLDGKGEPKGAKRAKPVKYTAAKLHEKGVLLDIDDLQTNQFKNVTFDIIATEDVGIFDVRSKFLGVEMEKVQLNIQDLLQMQYEGVAVMKMFDKVKVNVNLLIYLLNKKFYGK”, for which the protein production entry is “failed”.

For the sequence “MSLRPRVLLVEDSTSLAILYKQYVKDEPYDIFHVETGRDAIQFIERSKPQLIILDLKLPDMSGEDVLDWINQNDIPTSVIIATAHGSVDLAVNLIQKGAEDFLEKPINADRLKTSVALHLKRAKLEDLVEGHHHHHH”, the protein production result is “not failed”.

On to “MKYSWNKTVFPIAAIFSFRLLGLFLLIPVFTLYATNLKGATPTLIGLALGSYGLAQGLLQIPFGMLSDKLGRKPMIAIGLLLFAGGSLLGAVTHSIAGMITARILQGAGAIGSVLIALLADLTLDEQRTKAMAIVGITIGTSFSLAMIISPALTHYYGLSGVFYLTAALAVLGIMILYLIIPNPSKEQFHADSEPSLSLIKPVVTDQHLQRLNFGIFCQHFILTATFFAIPMLLKYQIENGHLHQQWHFYLPLMLFSFILMVPFIIISERKKRLKTVFVISVLLTTFTQGLLVLASQNWYWFCILMFVYFVSFNVLEATLPSLVSKLASPGSKGTAMGIYSTSQFLGIFFGGSLAGILYQWYDNQAIFLINMILSCLWFIISLSMKSNVYFSTLILPFTANNEESKLVVNQLLKVAGIKEVILSKDENTLYVRVDNEEYSTGSAEKILHQSTIYQ”, for which the protein production result is on record as “failed”.

For the sequence “MNNSFRNKIHEQSKENLSDDRHKKSDRTLIVFNRKTPLYFYFFEQVRYITGSIYILIETPSSRNLPIYSNICIPISSHPNTNYRPKKRKKNPPTVYLTTIILIMGLLSLEDTIKEKLKDRKNAHFMLVDGMSKLLTEKVKNCQSLDFQVSGVKWRLVIRLSRGRKDHLSFVLEITDEKCTGSTWDVKFNFKIGIVPQTGPDYCFVLVGHQNEKKRSQGLANFISHTDLKERFLVNDKAGFYAEISDVQPNFPVTRIPRTMGTAERFKLIEFSPKNSRFTWKITQFSSFDGEEHSSYEFTVGPRRWKLVMYPKGNGDGKGNSLSLYLFASDYVTNGPKGGTLAIYKLRVLDQLNRNHCETECRYWFPYNPVNQMDSLWGRPKFLPLEELHKSSRGFLVNDQIYIGVEISIVSTTEYL”, the protein production entry is listed as “failed”.

In the case of “MPASPEESAMTPWTPIARLEEIPRQGARVVATPEGAIAVFRTLDDRVFALLDRCPHKGGPLSQGIVHGARVACPLHNWVIELDSGQAVAPDEGCVRRFETRLEDGMVAIALPDSLVGTLEHHHHHH”, the protein production entry is “not failed”.

For “EADMLFSVTVPGSTANLGPGFDSVGMALSRYLKLTVFESDKWSFEAETETVAGIPAGTDNLIYQVAKRTADLYGKEMPPVHVKVWSDIPLARGLGSSAAAIVAAIELADELCGLKLSEADKLHLASLEEGHPDNAGASLVGGLVIGLHEDDETQM”, the protein production entry was “failed”.

On to “MKIFVDGDGSPVKETVIEVAVEKALDVVIVTSVDHYSLKDYPENVSFVYVDKGADAADFKIVQLIKKGDLLITQDYGLASLVLPKGVLVLHQLGYQYTKENIDGLLEQRYFSGQIRRKGGRTKGPKPFTDQDRTTFKQALIELVKRSLLEHHHHHH”, for which the protein production result is “failed”.

Regarding “MKILLIGGSGNIGRAIAAELSGRHEIIAAGRHHGDVRVDIEDEQSIAAMYRQLPRLDAVAVATGGRNGHVGPLAEMNAERYRVGLDAKLMGQVNLVLRGLDKVADGGSFTLVGGAWQPQAIVPLLSNVYMANAALEGFVNAAAVELPRRLRINLVSPLLLAESEAEYGPLFRGVPLVEARQVARAYSLSIEGAQTGQTYRLGRLDLEHHHHHH”, the protein production entry is “not failed”.

Consider “MSEYLPGIIWLVVLLVVNAFFVGAEFAVISARRSQIEPKAEAGSKAAKTTLWAMEHATLMLATSQLGITVCSLVILNVSEPAIHHLLEIPLGLTSLSGEAIGIIAFVAALLLVTFLHVVLGEMVPKNISFSVPTRAALILAPPLVMVARILKPVIWTLNGIANSILRLFKVEPKDEATSAYTLDEVANIVEQSTRDGMLSDTSGTLTAAFEFTSKTVADVEVPIGEMVLLPATSTPADIQRAVAEHGYSRYILTDDDGTPTGYLHLKDVMDLTTREKFDQPVPAKRIRKLASAYSGSELEDALATMRRSGAHVARVFDAAGNTTGVLFLEDIIEELVGEVQDATST”, for which the protein production entry is recorded as “not failed”.

For the sequence “MKLLLIGYGNVGKAFRRLLHEKKDNYPILQGVEIAGIITRQGLMVGDKENFSPDKQLTVLEAIDYINPDVIVDMSVPNYKDGEPSVSAYIKALSRKIHVITVNKAPLALKFREIFEVAEKTGAKIGFQGTVMSGTPSINLFRIQPVAEVSRIRGILNGTTNYILTRIYEGLSFNEALKEAKEKGYAEEDPTLDLNGFDAAAKLTILSNFIMNRSLKLGDFKFKGITEITNEEIRRAKSEGKKIKLIAYADNYVVQVSPQIIGPQDPLYYIDGVENALEIQNEIQRIIIRGPGAGPINAAYGALSDLVLLLEGCL”, the protein production result is recorded as “failed”.

As to “SNRLPDDYDPYAVEEPSDEEPALSSSEDEVDVLLHGTPDQKRKLIRECLTGESESSSEDEFEKEMEAELNSTMKTMEDKLSSLGTGSSSGNGKVATAPTRYYDDIYFDSDSEDEDRAVQVTKKKKKKQHKIPTNDELLYDPEKDNRDQAWVDAQRRGYHGLGPQRSREQQPVPNSDAVLNCPACMTTLCLDCQRHESYKTQYRAMFVMNCSINKEEVLRYKASENRKKRRVHKKMRSNQEDAAEKAETDVEEIYHPVMCTECSTEVAVYDKDEVFHFFNVLASHS”, the protein production entry is listed as “not failed”.

Turning to “MRRCFSKITDCHLGFKNSNFLLVGSEVGSGSVTRTITTTTSERLFSSSYAAHQVDQIKDNPVSDMLIDKFGRLHTYLRISLTERCNLRCQYCMPSEGVELTPKPQLLSQSEIVRLAGLFVSAGVNKIRLTGGEPTVRKDIEEICLQLSSLKGLKNLAITTNGITLAKKLPRLKECGLDSLNISLDTLVPAKFEFLTRRKGHDRVMKSIDTAIELGYNPVKVNCVIMRGLNDDEICDFVELTRDKPINVRFIEFMPFDGNVWNVKKLVPYAEVMDKVVKRFPSIKRMQDHPTETAKNFTIDGHCGSVSFITSMTEHFCAGCNRLRLLADGNFKVCLFGPSEVSLRDPLRSGADDEALREIIGAAVKRKKAAHAGMLDIAKTANRPMIHIGG”, the protein production entry is given as “failed”.
